Reference: US20220227815A1, “COMPOSITIONS AND METHODS USEFUL IN TREATING BRAIN DISEASES” (University of Kansas, priority 2019, published 2022)

Tests used:
[1] = system: recombinant BDNF and pTrkB; assay: Western blot detection of recombinant BDNF and pTrkB in brain; type: in vivo, SJL/elite mice; details: BDNF 5.71 nmol/kg i.v. with or without ADTC5 10 μmol/kg; 20 min; n=3
Method: Female SJL/elite mice, 5 weeks of age (Charles River) were initially intravenously injected via lateral tail vein with 5.71 nmol/kg BDNF (Peprotech, Rocky Hill, N.J.) with (n=3) or without (n=3) 10 μmol/kg ADTC5. BDNF was allowed to circulate for 20-30 min prior to euthanasia via CO2. Immediately following euthanasia, mice were transcardially perfused with protease inhibitor infused TRIS buffer (pH 7.4). The brains of the mice were extracted and placed in the perfusate buffer on ice. For Western blotting, 100-150 mg of brain tissue was sectioned from the most ventral-posterior portion of the brain and placed in 200-250 μL of solution mixture containing 66% tissue protein extraction reagent (TPER; Thermo Fisher, Waltham, […].) and 33% […] neural protein extraction reagent (NPER; Thermo Fisher) with protease and phosphatase inhibitors (Thermo Fisher). […] These bands were not densiometrically analyzed due to high background signal; however, they are shown for qualitative analysis.
To improve the level of detection of BDNF and pTrkB bands via Western blot, the above process was repeated with an increase in dosages of BDNF. […] These images were not quantified due to the variation in dosing regiments; however, they are provided for qualitative analysis of BDNF brain depositions.

amyloid beta plaques = assay: Amyloid beta plaque load in hippocampus, Congo red staining; type: in vivo, transgenic APP/PS1 mice; details: APP/PS1 mice; 8 injections; all three groups compared; n=5
Method: Animals: All animal studies were carried out under the approved animal protocol (AUS-74-11) granted by Institutional Animal Care and Use Committee (IACUC) at The University of Kansas. Animal Care Unit (ACU) personnel and veterinarians were involved in the care of the animals used in this study. Female transgenic APP/PS1 (MMRRC stock #34832-Jax) were obtained from Jackson Laboratory (Bar Harbor, Me.) and housed until at least 6 months of age. Mice received intravenous (i.v.) injections of either BDNF (5.7 nmol/kg)+ADTC5 (10 μmol/kg; n=7), BDNF alone (5.7 nmol/kg; n=6), or vehicle (n=6) every 4 days, for a total of 8 injections. At the end of the study, the mice were euthanized via CO2 inhalation and perfused with PBS immediately followed by 4% formalin fixative solution. The brains were extracted and post-fixed overnight in the perfusion-fixation solution then transferred to 70% ethanol PBS solution for paraffin embedding.
Coronal brain sections (10 μm thickness) were generated and mounted onto gelatin-coated slides (Superfrost Plus, Thermo Fisher Scientific, Waltham, Mass.). For both Aβ histology and NG2 receptor immunohistochemistry, sections were deparaffinized using xylene and serially hydrated from 95% ethanol to distilled water. […] Aβ plaque levels were quantified by counting the number of plaques from the hippocampus at 10× magnification from 5 random sections per group (n=5).

B1: BDNF: recombinant brain-derived neurotrophic factor (13 kDa monomer), Peprotech (protein, UniProt P23560 19-247, looked up)
Neurotrophic factor BDNF …: APMKEANIRGQGGLAYPGVRTHGTLESVNGPKAGSRGLTSLADTFEHVIEELLDEDQKVRPNEENNKDADLYTSRVMLSSQVPLEPPLLFLLEEYKNYLDAANMSMRVRRHSDPARRGELSVCDSISEWVTAADKKTAVDMSGGTVTVLEKVPVSKGQLKQYFYETKCNPMGYTKEGCRGIDKRHWNSQCRTTQSYVRALTMDSKKRIGWRFIRIDTSCVCTLTIKRGR
detection of BDNF bands in the brain [1]: undetected
amounts of amyloid beta plaques in hippocampus (amyloid beta plaques): no significant difference
